Consider 2 molecules from paper PMC12549891, “Structural mechanisms of assembly, gating, and calmodulin modulation of human olfactory CNG channel” (Nature Communications, 2025).

Sequences and labels used below:
B1: human CNGA2 subunit (natural protein)
chain: MTEKTNGVKSSPANNHNHHAPPAIKANGKDDHRTSSRPHSAADDDTSSELQRLADVDAPQQGRSGFRRIVRLVGIIREWANKNFREEEPRPDSFLERFRGPELQTVTTQEGDGKGDKDGEDKGTKKKFELFVLDPAGDWYYCWLFVIAMPVLYNWCLLVARACFSDLQKGYYLVWLVLDYVSDVVYIADLFIRLRTGFLEQGLLVKDTKKLRDNYIHTLQFKLDVASIIPTDLIYFAVDIHSPEVRFNRLLHFARMFEFFDRTETRTNYPNIFRISNLVLYILVIIHWNACIYYAISKSIGFGVDTWVYPNITDPEYGYLAREYIYCLYWSTLTLTTIGETPPPVKDEEYLFVIFDFLIGVLIFATIVGNVGSMISNMNATRAEFQAKIDAVKHYMQFRKVSKGMEAKVIRWFDYLWTNKKTVDEREILKNLPAKLRAEIAINVHLSTLKKVRIFHDCEAGLLVELVLKLRPQVFSPGDYICRKGDIGKEMYIIKEGKLAVVADDGVTQYALLSAGSCFGEISILNIKGSKMGNRRTANIRSLGYSDLFCLSKDDLMEAVTEYPDAKKVLEERGREILMKEGLLDENEVATSMEVDVQEKLGQLETNMETLYTRFGRLLAEYTGAQQKLKQRITVLETKMKQNNEDDYLSDGMNSPELAAADEP
notes: CNGA2, human; Expressed from a tri-cistronic construct with P2A peptides between neighbouring genes; remnants of P2A may remain at chain ends (surmise); Two copies stand in the heterotetramer; also called A2L; A2R; source: HEK293F, BacMam, tri-cistronic P2A construct, purified within the CNGA2/A4/B1b complex (anti-Flag, Strep-Tactin, SEC); not shown: Flag, N-terminal, kept
B2: human CNGA4 subunit (natural protein)
chain: MSQDTKVKTTESSPPAPSKARKLLPVLDPSGDYYYWWLNTMVFPVMYNLIILVCRACFPDLQHGYLVAWLVLDYTSDLLYLLDMVVRFHTGFLEQGILVVDKGRISSRYVRTWSFFLDLASLMPTDVVYVRLGPHTPTLRLNRFLRAPRLFEAFDRTETRTAYPNAFRIAKLMLYIFVVIHWNSCLYFALSRYLGFGRDAWVYPDPAQPGFERLRRQYLYSFYFSTLILTTVGDTPPPAREEEYLFMVGDFLLAVMGFATIMGSMSSVIYNMNTADAAFYPDHALVKKYMKLQHVNRKLERRVIDWYQHLQINKKMTNEVAILQHLPERLRAEVAVSVHLSTLSRVQIFQNCEASLLEELVLKLQPQTYSPGEYVCRKGDIGQEMYIIREGQLAVVADDGITQYAVLGAGLYFGEISIINIKGNMSGNRRTANIKSLGYSDLFCLSKEDLREVLSEYPQAQTIMEEKGREILLKMNKLDVNAEAAEIALQEATESRLRGLDQQLDDLQTKFARLLAELESSALKIAYRIERLEWQTREWPMPEDLAEADDEGEPEEGTSKDEEGRASQEGPPGPE
notes: CNGA4, human; Expressed from a tri-cistronic construct with P2A peptides between neighbouring genes; remnants of P2A may remain at chain ends (surmise); source: HEK293F, BacMam, tri-cistronic P2A construct, purified within the CNGA2/A4/B1b complex (anti-Flag, Strep-Tactin, SEC); not shown: Flag, N-terminal, kept

Data set [1] concerns the molecule itself. Put plainly: cryo-EM structure; CNGA2/A4/B1b co-expressed with CaM, complex purified with 2 mM CaCl2 in digitonin; apo (no cAMP), closed state; focused refinement around the CLZ region.
Data set [2] concerns the target T1, human CNGB1b subunit (shorter CNGB1 variant, amino acids 456-1251) (human, UniProt Q14028 456-1251).
T1 construct: CNGB1b, olfactory shorter variant of human CNGB1 lacking the N-terminal GARP domain, amino acids 456-1251 of CNGB1; Expressed from a tri-cistronic construct with P2A peptides between neighbouring genes; remnants of P2A may remain at chain ends (surmise); source: HEK293F, BacMam, tri-cistronic P2A construct, purified within the CNGA2/A4/B1b complex (anti-Flag, Strep-Tactin, SEC); not shown: Flag, …
Described as above. Particulars: both partners purified.

The target of the next data set is T2, human calmodulin (human, UniProt P0DP23 1-149).
T2 construct: calmodulin, human; The purified CaM (800 nM) and the endogenous HEK293 CaM of the patch-clamp recordings are written with this molecule; also called CaM; Ca^2+/CaM; source: HEK293F, BacMam, co-expressed with CNGA2/A4/B1b, co-purified (anti-Flag, Strep-Tactin, SEC); not shown: Strep, C-terminal, kept
Described as above. The note with it: both partners purified.

The data set “human CNGA2 subunit” concerns the target B1. Put plainly: cryo-EM structure; CNGA2/A4/B1b after removal of CaM by EGTA and SEC, incubated with 5 mM cAMP; cAMP-bound open state. The note with it: both partners purified.

T1 sequence (Q14028 456-1251, stated change not applied): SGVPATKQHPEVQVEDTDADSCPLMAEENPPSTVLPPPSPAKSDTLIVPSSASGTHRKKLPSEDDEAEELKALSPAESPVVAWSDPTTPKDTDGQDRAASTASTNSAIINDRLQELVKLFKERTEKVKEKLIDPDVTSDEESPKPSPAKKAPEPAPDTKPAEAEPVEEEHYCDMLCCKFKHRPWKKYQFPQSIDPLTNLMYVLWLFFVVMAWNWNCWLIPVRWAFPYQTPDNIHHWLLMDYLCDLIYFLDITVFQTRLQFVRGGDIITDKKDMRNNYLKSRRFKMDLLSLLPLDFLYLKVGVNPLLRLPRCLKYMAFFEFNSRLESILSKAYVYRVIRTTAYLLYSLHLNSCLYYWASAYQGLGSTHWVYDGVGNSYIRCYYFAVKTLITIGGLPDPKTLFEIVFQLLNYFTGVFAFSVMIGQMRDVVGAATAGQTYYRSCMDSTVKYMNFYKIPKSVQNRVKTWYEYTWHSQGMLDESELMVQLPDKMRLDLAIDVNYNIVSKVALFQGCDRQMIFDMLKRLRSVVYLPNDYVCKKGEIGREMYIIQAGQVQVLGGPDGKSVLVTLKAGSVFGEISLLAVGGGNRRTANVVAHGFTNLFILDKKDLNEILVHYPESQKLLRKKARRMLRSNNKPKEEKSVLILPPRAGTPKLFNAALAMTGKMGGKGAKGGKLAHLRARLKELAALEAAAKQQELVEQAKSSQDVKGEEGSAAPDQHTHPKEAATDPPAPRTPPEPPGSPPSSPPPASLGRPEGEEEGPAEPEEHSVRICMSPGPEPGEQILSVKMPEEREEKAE

B1: the binding result in data set [1] and in data set [2] was “binds” throughout.
In the case of B2, the binding result (in the data set with human calmodulin; in data set [2]; with human CNGA2 subunit) was “binds” throughout.
